Assay results as given in paper PMC10397247.
Each block holds one binder with its values, some of them ahead of it.

Key:
[1] = target: T1, 4H2699-AA; assay: two-hybrid library CCmax; conditions: mean of both orientations;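 note: natural log of median RNA to DNA barcode read ratio; higher means stronger binding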
T1 chain: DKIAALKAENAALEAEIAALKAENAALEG

[2] = target: T2, 4H3969-AA; assay: two-hybrid library CCmax; conditions: mean of both orientations;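 note: natural log of median RNA to DNA barcode read ratio; higher means stronger binding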
T2 chain: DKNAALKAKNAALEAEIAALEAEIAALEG

[3] = target: T3, 4H3129-AA; assay: two-hybrid library CCmax; conditions: mean of both orientations;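 note: natural log of median RNA to DNA barcode read ratio; higher means stronger binding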
T3 chain: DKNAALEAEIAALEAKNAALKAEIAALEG

[4] = target: T4, 4H2728-AA; assay: two-hybrid library CCmax; conditions: mean of both orientations;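 note: natural log of median RNA to DNA barcode read ratio; higher means stronger binding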
T4 chain: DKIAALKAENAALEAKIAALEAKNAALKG

[5] = target: T5, 4H1454-AA; assay: two-hybrid library CCmax; conditions: mean of both orientations;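 note: natural log of median RNA to DNA barcode read ratio; higher means stronger binding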
T5 chain: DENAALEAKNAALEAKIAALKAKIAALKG

[6] = target: T6, 4H3782-AA; assay: two-hybrid library CCmax; conditions: mean of both orientations;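 note: natural log of median RNA to DNA barcode read ratio; higher means stronger binding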
T6 chain: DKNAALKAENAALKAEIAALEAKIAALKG

[7] = target: T7, 4H2903-AA; assay: two-hybrid library CCmax; conditions: mean of both orientations
T7 chain: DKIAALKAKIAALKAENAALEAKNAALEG

[8] = target: T8, 4H2774-AA; assay: two-hybrid library CCmax; conditions: mean of both orientations
T8 chain: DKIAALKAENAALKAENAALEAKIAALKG

[9] = target: T9, 4H464-AA; assay: two-hybrid library CCmax; conditions: mean of both orientations
T9 chain: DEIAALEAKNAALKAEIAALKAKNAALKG

[10] = target: T10, 4H1913-AA; assay: two-hybrid library CCmax; conditions: mean of both orientations
T10 chain: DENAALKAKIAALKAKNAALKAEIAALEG

[11] = target: T11, 4H3595-AA; assay: two-hybrid library CCmax; conditions: mean of both orientations
T11 chain: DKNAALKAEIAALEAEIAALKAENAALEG

[12] = target: T12, 4H3629-AA; assay: two-hybrid library CCmax; conditions: mean of both orientations
T12 chain: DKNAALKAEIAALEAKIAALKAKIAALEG

[13] = target: T13, 4H3414-AA; assay: two-hybrid library CCmax; conditions: mean of both orientations
T13 chain: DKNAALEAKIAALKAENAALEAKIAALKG

[14] = target: T14, 4H380-AA; assay: two-hybrid library CCmax; conditions: mean of both orientations
T14 chain: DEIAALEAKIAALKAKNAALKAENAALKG

[15] = target: T15, 4H341-AA; assay: two-hybrid library CCmax; conditions: mean of both orientations
T15 chain: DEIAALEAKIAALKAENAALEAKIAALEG

[16] = target: T16, 4H483-AA; assay: two-hybrid library CCmax; conditions: mean of both orientations
T16 chain: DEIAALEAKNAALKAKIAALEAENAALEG

[17] = target: T17, 4H249-AA; assay: two-hybrid library CCmax; conditions: mean of both orientations
T17 chain: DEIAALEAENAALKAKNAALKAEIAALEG

[18] = target: T18, 4H2961-AA; assay: two-hybrid library CCmax; conditions: mean of both orientations
T18 chain: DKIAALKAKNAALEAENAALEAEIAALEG

[19] = target: T19, 4H446-AA; assay: two-hybrid library CCmax; conditions: mean of both orientations
T19 chain: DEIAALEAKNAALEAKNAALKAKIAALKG

[20] = target: T20, 4H63-AA; assay: two-hybrid library CCmax; conditions: mean of both orientations
T20 chain: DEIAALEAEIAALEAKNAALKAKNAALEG

[21] = target: T21, 4H1558-AA; assay: two-hybrid library CCmax; conditions: mean of both orientations
T21 chain: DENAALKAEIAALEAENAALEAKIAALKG

[22] = target: T22, 4H2621-AA; assay: two-hybrid library CCmax; conditions: mean of both orientations
T22 chain: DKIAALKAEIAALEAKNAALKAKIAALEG

[23] = target: T23, 4H3049-AA; assay: two-hybrid library CCmax; conditions: mean of both orientations
T23 chain: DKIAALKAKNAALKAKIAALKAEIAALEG

[24] = target: T24, 4H2580-AA; assay: two-hybrid library CCmax; conditions: mean of both orientations
T24 chain: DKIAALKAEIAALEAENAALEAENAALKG

[25] = target: T25, 4H1360-AA; assay: two-hybrid library CCmax
T25 chain: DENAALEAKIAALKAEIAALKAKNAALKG

[26] = target: T26, 4H3939-AA; assay: two-hybrid library CCmax; conditions: mean of both orientations
T26 chain: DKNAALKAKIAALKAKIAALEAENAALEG

[27] = target: T27, 4H363-bN; assay: two-hybrid library CCNG1
T27 chain: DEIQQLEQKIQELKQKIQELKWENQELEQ

[28] = target: T28, 4H850-bA; assay: two-hybrid library CCNG1
T28 chain: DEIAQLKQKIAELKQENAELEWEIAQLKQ

[29] = target: T29, 4H3907-bN; assay: two-hybrid library CCNG1
T29 chain: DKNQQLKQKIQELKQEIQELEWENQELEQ

[30] = target: T30, 4H470-bN; assay: two-hybrid library CCNG1
T30 chain: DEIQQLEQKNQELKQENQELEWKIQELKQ

[31] = target: T31, 4H2745-bN; assay: two-hybrid library CCNG1
T31 chain: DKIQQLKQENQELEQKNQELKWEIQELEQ

[32] = target: T32, 4H344-bN; assay: two-hybrid library CCNG1
T32 chain: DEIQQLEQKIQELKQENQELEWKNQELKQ

[33] = target: T33, 4H3961-bN; assay: two-hybrid library CCNG1
T33 chain: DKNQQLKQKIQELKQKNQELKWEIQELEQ

interaction score [1]: 0.416
interaction score [2]: 0.163
interaction score [3]: -1.34
interaction score [4]: -1.69
interaction score [5]: -1.08
interaction score [6]: -0.0635
interaction score [7]: 0.0597
interaction score [8]: -1.2
interaction score [9]: -1.69
interaction score [10]: -1.61
interaction score [11]: 2
interaction score [12]: 0.958
interaction score [13]: -1.25
interaction score [14]: -1.11
interaction score [15]: 0.0278
interaction score [16]: -1.58
interaction score [17]: -1.76
interaction score [18]: -1.52
interaction score [19]: -1.69
interaction score [20]: 0.265
interaction score [21]: -0.811
interaction score [22]: -1.11
interaction score [23]: -0.108
interaction score [24]: 1.2
interaction score [25]: -0.121
interaction score [26]: 0.656
Binder: DENAALEAKIAALKAEIAALKAKNAALKG [4H1360-AA]

interaction score [27]: -0.693
interaction score [28]: -0.544
interaction score [29]: -1.56
interaction score [30]: 1.07
interaction score [31]: -0.754
interaction score [32]: -0.786
interaction score [33]: -0.46
Binder: DKIQQLKQENQELEQKNQELKWEIQELEQ [4H2745-bN]
